Measurements taken from patent publication US12371675B2, “Process and microorganism for synthesis of adipic acid from carboxylic acids” (THE GOVERNING COUNCIL OF THE UNIVERSITY OF TORONTO, priority 2015, dated 2025).
Values joined by “and” are separate entries in the source; they are usually repeats but may differ in a detail not shown here. Equal values may be shown once.

Columns and labels:
[1] = In vitro reductase activity of purified EREDs, NADH oxidation at 340 nm; format: biochemical
Experimental: (§1) The C═C reducing activity of EREDs was examined. Enzyme activity of purified EREDs was measured spectrophotometrically in 96-well plates by following incubation for 3-5 min at 30° C. in the anaerobic chamber as described in M. Buhler, H. Simon, Hoppe-Seyler's Zeitschrift fur Physiologische Chemie 1982, 363, 609-625. Buffers and reagents were degassed and sparged with Ar. Reaction mixture contained potassium phosphate (100 mM and pH 7.0), NADH (0.5 mM), indicated substrates, and proteins (0.1-50 μg) in a final volume of 200 μL. Enzyme reactions were monitored by following the decrease in absorbance at 340 nm (ε340 nm=6,220/M·cm) due to oxidation of NADH to NAD+.
(§2) For in vitro biochemical characterization, enzyme activities of purified EREDs were measured with 2-hexenedioic acid, cis-cis-muconic acid, trans-trans muconic acid, trans-cinnamic acid, trans-2-methyl-2-butenoic acid, trans-2-butenoic acid, acrolein, 2-cyclohexen-1-one, and 3-methyl-2-cyclohexenone. […] [Feng, J. et al. Discovery and Characterization of BlsE, a Radical S-Adenosyl-L-methionine Decarboxylase Involved in the Blasticidin S Biosynthetic Pathway. PLoS ONE 8 (2013)].

[2] = Oxygen tolerance (residual activity) of purified EREDs on storage; format: physicochemical; settings: for retained initial activity, storage in the absence of oxygen / retained initial activity, storage in the presence of air: three days; for retained initial activity, storage in the absence of oxygen: 4° C.
Experimental: Purified EREDs were placed in 5 mL glass tubes tightly capped with air-tight rubber stoppers. Anaerobic tubes were filled with anaerobic gas mixture (80% N2, 10% H2, and 10% CO2) and aerobic tubes were filled with atmospheric air. The tubes were kept on ice for a week and a small aliquots of EREDs (5 ul) were withdrawn by a syringe every day to measure residual activity in a reaction mixture containing 100 mM potassium phosphate buffer (pH 7.0), 0.5 mM NADH, indicated substrates (0.25 mM 2-hexenedioic acid for EREDBC and 0.75 mM cinnamic acid for EREDCA, and protein (1 μg) in a final volume of 200 μL.

[3] = In vitro reductase activity of purified EREDs, NADH oxidation at 340 nm; format: biochemical; settings: for activity against 2-hexenedioic acid: purified enzyme, anaerobic, NADH, aqueous buffer
Experimental: as §1, §2
To increase the dissolved substrate concentration, 2-hexenedioic acid was dissolved in a reaction mixture containing […] (final concentration) isopropanol, and kinetic constants of EREDBC and EREDCA were determined.

[4] = Whole-cell biotransformation of muconic acid by E. coli expressing EREDs; format: cell-based; settings: 0.7 mM, 24-hr incubation
Experimental: After a 24-hr incubation, no muconic acid or 2-hexenedioic acid were detected in the culture, and a 99% yield of adipic acid was obtained (FIGS. 8a, 8b, and 8c). […] The 3-hexenedioic acid-like compound appears to be an inefficient substrate for these EREDS. This is similar to the mutated 2,4-dienoyl-CoA reductases from E. coli, which catalyze hydrogenation of 2,4-dienoyl CoA into 3-enoyl CoA (Tu, X., Hubbard, P. A., Kim, J. J. P. & Schulz, H. Two distinct proton donors at the active site of Escherichia coli 2,4-dienoyl-CoA reductase are responsible for the formation of different products. Biochemistry 47, 1167-1175 (2008).).

[5] = In vitro biotransformation by CARs coupled with aldehyde reductase PP_3370; format: biochemical; settings: Table 12 title: 10 mM adipic acid (12 h) in vitro, CARs coupled with PP3370
[6] = CAR reductase activity, NADPH oxidation at 340 nm; format: biochemical; settings: ND = no activity was detected
Experimental: Reductase activity was measured spectrophotometrically by following the oxidation of NADPH depletion at 340 nm.
It has been shown that the N. iowensis CAR has a broad substrate range, though its maximal activity was usually observed with aromatic substrates such as benzoic and cinnamic acids. CARs gene sequences homologues to the N. iowensis CAR (Uniprot number: Q6RKB1), were selected from GenBank database. Based on presence of adenylation (AMP-binding PF00501) and reduction (NAD-binding PF07993) domains accompanied with phosphopantetheinyl binding motif (PF00530) 13 CAR genes (mostly from Mycobacterium) were cloned and expressed in E. coli. (Table 4). As CAR activation enzymes, phosphopantetheinyl transferases (PPTs) from E. coli (P19925) and Bacillus subtilis (P39135), were used which were co-expressed with the selected CAR genes from a separate plasmid. Using 1-liter E. coli cultures with overnight induction by IPTG, 12 soluble CAR proteins were purified using affinity chromatography on a Ni-NTA resin.

[7] = In vitro biotransformation by CARs coupled with aldehyde reductase PP_3370; format: biochemical; settings: Table 12 title: 10 mM 4-hydroxybutyric acid (12 h) in vitro, CARs coupled with PP3370
[8] = In vivo whole cell biotransformation by E. coli expressing CARs; format: cell-based; settings: 24 h
Experimental: E. coli cells expressing recombinant CARs with BSU03570 phosphopantetheinyl transferase were grown on LB media with […], supplemented with 2% glycerol aerobically on 37° C., until the culture optical density (OD 600 nm) reached 0.6-0.8. At this point protein expression was induced with 0.4 mM IPTG and substrate (adipic acid or 4-hydroxybutyric acid) for final 10 mM concentration was added. Samples were taken at 6 h, 24 h and 48 h, centrifuged, supernatant was filtered through 10 kDa centrifugal filters. Products were analyzed with HPLC or LC-MS. Negative control experiments were performed using E. coli cells harboring empty plasmids. All results of in vivo experiments are means from at least two independent determinations.

[9] = purified enzyme, anaerobic, NADH

B1: EREDCA: 2-enoate reductase (ERED) from Clostridium acetobutylicum DSM 1731 (protein)
chain: MNKYKKLFEPIKIGKCEIKNRFALAPMGPLGLADSEGGFNQRGIDYYTERAKGGTGLIITGVTFVDNEVEEHGMPNCPCPTHNPVQFVRTGREMTERIHAYNSKVFLQMSGGFGRVTIPTNLGEFPPVAPSPIQHRWLDKTCRELTVDEIKSIVKKFGEGAFNAKRAGFDGVQIHAVHEGYLIDQFAISLFNHRTDEYGGSLENRLRFAREIVEEIKNRCGEDFPVTLRYSPKSFIKDLRDGALPGEEFVEKGRDLDEGVEAAKLLVSYGYDALDTDVGSYDSWWWSHPPMYQEKGLYRKYAKLMKDTVDVPVICAGRMDDPDMALEAVENGTCDVISLGRPLLADPDYVNKLRSNKCKSIRPCISCQEGCMGRVQHYSMLNCAVNPQACKERANSLTPIIKSKKVLIVGGGVAGCEAARVLALRGHEPVLYEKSNRLGGNLIPGGAPSFKEDDIALADWYTNTLKELNVEVNLNSEVTKEQILNSKFDTVIVATGSTPKVFPLGDDEKVFTAAEVLLGQKDPGETTVVVGGGLVGCELALDLAKKGKKVTIVEALNKILALNGPLCSANSEMLQKLIPFNGIDVKANSKVKGYKNGLLKMETENGIEELPCDSVILSVGYKEENSLYKELEFEIPEIYLLGDARKVSNIMYGIWDAFEVANHI
activity against trans-2-butenoic acid [1, 9]: 0.008 U/mg protein | activity against trans-cinnamic acid [1, 9]: 3.5 U/mg protein | residual activity, storage in the presence of air ([2]; one day, air (21% oxygen)): 30% | retained initial activity, storage in the absence of oxygen [2]: 19% | retained initial activity, storage in the presence of air ([2]; air (21% oxygen)): completely inactivated | activity against 2-hexenedioic acid [3]: up to 0.05 U/mg protein | yield of adipic acid from cis,cis-muconic acid [4]: 99% | yield of adipic acid from trans,trans-muconic acid [4]: 99%

B2: MSMEG_5739: carboxylate reductase (CAR) from M. smegmatis ATCC 700084 (protein)
chain: MTSDVHDATDGVTETALDDEQSTRRIAELYATDPEFAAAAPLPAVVDAAHKPGLRLAEILQTLFTGYGDRPALGYRARELATDEGGRTVTRLLPRFDTLTYAQVWSRVQAVAAALRHNFAQPIYPGDAVATIGFASPDYLTLDLVCAYLGLVSVPLQHNAPVSRLAPILAEVEPRILTVSAEYLDLAVESVRDVNSVSQLVVFDHHPEVDDHRDALARAREQLAGKGIAVTTLDAIADEGAGLPAEPIYTADHDQRLAMILYTSGSTGAPKGAMYTEAMVARLWTMSFITGDPTPVINVNFMPLNHLGGRIPISTAVQNGGTSYFVPESDMSTLFEDLALVRPTELGLVPRVADMLYQHHLATVDRLVTQGADELTAEKQAGAELREQVLGGRVITGFVSTAPLAAEMRAFLDITLGAHIVDGYGLTETGAVTRDGVIVRPPVIDYKLIDVPELGYFSTDKPYPRGELLVRSQTLTPGYYKRPEVTASVFDRDGYYHTGDVMAETAPDHLVYVDRRNNVLKLAQGEFVAVANLEAVFSGAALVRQIFVYGNSERSFLLAVVVPTPEALEQYDPAALKAALADSLQRTARDAELQSYEVPADFIVETEPFSAANGLLSGVGKLLRPNLKDRYGQRLEQMYADIAATQANQLRELRRAAATQPVIDTLTQAAATILGTGSEVASDAHFTDLGGDSLSALTLSNLLSDFFGFEVPVGTIVNPATNLAQLAQHIEAQRTAGDRRPSFTTVHGADATEIRASELTLDKFIDAETLRAAPGLPKVTTEPRTVLLSGANGWLGRFLTLQWLERLAPVGGTLITIVRGRDDAAARARLTQAYDTDPELSRRFAELADRHLRVVAGDIGDPNLGLTPEIWHRLAAEVDLVVHPAALVNHVLPYRQLFGPNVVGTAEVIKLALTERIKPVTYLSTVSVAMGIPDFEEDGDIRTVSPVRPLDGGYANGYGNSKWAGEVLLREAHDLCGLPVATFRSDMILAHPRYRGQVNVPDMFTRLLLSLLITGVAPRSFYIGDGERPRAHYPGLTVDFVAEAVTTLGAQQREGYVSYDVMNPHDDGISLDVFVDWLIRAGHPIDRVDDYDDWVRRFETALTALPEKRRAQTVLPLLHAFRAPQAPLRGAPEPTEVFHAAVRTAKVGPGDIPHLDEALIDKYIRDLREFGLI
In vitro conversion efficiency % to: 1,6-hexanediol [5]: 57.2 ± 0.6% | In vitro conversion efficiency % to: 6-hydroxyhexanoic acid [5]: 9.1 ± 0.7% | Activity [U/mg protein] 4-hydroxybutyric acid, 5 mM [6]: 0.032 ± 0.024 U/mg protein | Activity [U/mg protein] adipic acid, 5 mM [6]: 0.054 ± 0.004 U/mg protein | In vivo conversion efficiency (%) to: 1,4-butanediol [7]: 86.1 ± 5.2% | In vivo conversion efficiency (%) to: 1,4-butanediol ([8]; 10 mM 4-hydroxybutyric acid): 86.1±5.2% | In vivo conversion efficiency (%) to: 1,6-hexanediol ([8]; 10 mM adipic acid): 53.8±1.4% and 57.2 ± 0.6% | In vivo conversion efficiency (%) to: 6-hydroxyhexanoic acid ([8]; 10 mM adipic acid): 9.1% and 9.1 ± 0.7%

B3: EREDBC: 2-enoate reductase (ERED) from Bacillus coagulans 36D1 (protein)
chain: MKYKKLFETVKIRNVELKNRYAMAPMGPLGLADAEGGFNQRGIEYYTARARGGTALIITGVTFVDNEVEEHGMPNVPCPTHNPVHFVRTSKEMTERIHAYDSKIFLQMSAGFGRVTIPTNLGEYPPVAPSPIPHRWLDKTCRELTVEEIHSIVRKFGDGAFNAKRAGFDGVQIHAVHEGYLLDQFAIAFFNKRTDAYGGPLENRLRFAREIVEEIKQRCGEDFPVTLRFSPKSFIKDWREGALPGEEFEEKGRDLDEGIEAAKLLVSYGYDALDVDVGSYDSWWWSHPPMYQKKGLYIPYARLVKEAVDVPVLCAGRMDNPDLALAALEDGACDIISLGRPLLADPDYVNKLRIGQVADIRPCLSCHEGCMGRIQEYSSLGCAVNPAACREKEAALTPALKKKRVLIAGGGVAGCEAARVLALRGHEPVIFEKSNRLGGNLIPGGAPDFKEDDLALVAWYEHTLERLGVEIHLNTALTKEEILAANVDAVLIATGSNPKILPLDGKNKVFTAEDVLLDKVDAGQHVVIVGGGLVGCELALNLAEKGKDVSLVEMQDKLLAVNGPLCHANSDMLERLVPFKGVQVYTSSKIVDTTEKTAVVDVDGELREIEADSIVLAVGYSAEKSLYEDLKFEVADLHVVGDARKVANIMYAIWDAYEVAANL
Activity [U/mg protein] trans-Cinnamic acid [1.0 mM] ([1]; 1.0 mM, titrated with 1N NaOH): 0.39 ± 0.001 U/mg protein | Activity [U/mg protein] Acrolein [15 mM] ([1]; 15 mM): 0.036 ± 0.005 U/mg protein | Activity [U/mg protein] trans-2-Butenoic acid [50 mM] ([1]; 50 mM): 0.037 ± 0.010 U/mg protein | Activity [U/mg protein] 2-Cyclohexen-1-one [200 mM] ([1]; 200 mM): 0.08 ± 0.03 U/mg protein | Activity [U/mg protein] 3-Methyl-2-cyclohexenone [200 mM] ([1]; 200 mM): 0.13 ± 0.03 U/mg protein | activity against 2-cyclohexen-1-one [1, 9]: 0.08 U/mg protein | activity against 3-methyl-2-cyclohexenone [1, 9]: 0.13 U/mg protein | activity against acrolein [1, 9]: 0.037 U/mg protein | activity against trans-2-butenoic acid [1, 9]: 0.036 U/mg protein | activity against trans-cinnamic acid [1, 9]: 0.39 U/mg protein | retained initial activity, storage in the absence of oxygen [2]: 35% | retained initial activity, storage in the presence of air ([2]; air (21% oxygen)): 33% | Activity [U/mg protein] 2-Hexenedioic acid [29 mM] ([3]; 29 mM, dissolved in aqueous buffer): 0.09 ± 0.02 U/mg protein | Activity [U/mg protein] 2-Hexenedioic acid [35 mM] ([3]; 35 mM, dissolved in 0.25 mM isopropanol): 2.3 ± 0.04 U/mg protein | activity against 2-hexenedioic acid [3]: 0.09 U/mg protein | yield of adipic acid from cis,cis-muconic acid [4]: 99% | yield of adipic acid from trans,trans-muconic acid [4]: 99%
